Measured values from paper PMC5385344, “Large Diversity of Functional Nanobodies from a Camelid Immune Library Revealed by an Alternative Analysis of Next-Generation Sequencing Data” (Frontiers in Immunology, 2017).

Assays:
[1] = target: Recombinant extracellular domain of human RON (rhRON) (human, UniProt Q04912)
[2] = target: full-length human RON expressed on HEK293T cells (HEK293T-hRON) (Homo sapiens, UniProt Q04912)
full-length human RON expressed on HEK293T cells (HEK293T-hRON), sequence (Q04912 25-1400): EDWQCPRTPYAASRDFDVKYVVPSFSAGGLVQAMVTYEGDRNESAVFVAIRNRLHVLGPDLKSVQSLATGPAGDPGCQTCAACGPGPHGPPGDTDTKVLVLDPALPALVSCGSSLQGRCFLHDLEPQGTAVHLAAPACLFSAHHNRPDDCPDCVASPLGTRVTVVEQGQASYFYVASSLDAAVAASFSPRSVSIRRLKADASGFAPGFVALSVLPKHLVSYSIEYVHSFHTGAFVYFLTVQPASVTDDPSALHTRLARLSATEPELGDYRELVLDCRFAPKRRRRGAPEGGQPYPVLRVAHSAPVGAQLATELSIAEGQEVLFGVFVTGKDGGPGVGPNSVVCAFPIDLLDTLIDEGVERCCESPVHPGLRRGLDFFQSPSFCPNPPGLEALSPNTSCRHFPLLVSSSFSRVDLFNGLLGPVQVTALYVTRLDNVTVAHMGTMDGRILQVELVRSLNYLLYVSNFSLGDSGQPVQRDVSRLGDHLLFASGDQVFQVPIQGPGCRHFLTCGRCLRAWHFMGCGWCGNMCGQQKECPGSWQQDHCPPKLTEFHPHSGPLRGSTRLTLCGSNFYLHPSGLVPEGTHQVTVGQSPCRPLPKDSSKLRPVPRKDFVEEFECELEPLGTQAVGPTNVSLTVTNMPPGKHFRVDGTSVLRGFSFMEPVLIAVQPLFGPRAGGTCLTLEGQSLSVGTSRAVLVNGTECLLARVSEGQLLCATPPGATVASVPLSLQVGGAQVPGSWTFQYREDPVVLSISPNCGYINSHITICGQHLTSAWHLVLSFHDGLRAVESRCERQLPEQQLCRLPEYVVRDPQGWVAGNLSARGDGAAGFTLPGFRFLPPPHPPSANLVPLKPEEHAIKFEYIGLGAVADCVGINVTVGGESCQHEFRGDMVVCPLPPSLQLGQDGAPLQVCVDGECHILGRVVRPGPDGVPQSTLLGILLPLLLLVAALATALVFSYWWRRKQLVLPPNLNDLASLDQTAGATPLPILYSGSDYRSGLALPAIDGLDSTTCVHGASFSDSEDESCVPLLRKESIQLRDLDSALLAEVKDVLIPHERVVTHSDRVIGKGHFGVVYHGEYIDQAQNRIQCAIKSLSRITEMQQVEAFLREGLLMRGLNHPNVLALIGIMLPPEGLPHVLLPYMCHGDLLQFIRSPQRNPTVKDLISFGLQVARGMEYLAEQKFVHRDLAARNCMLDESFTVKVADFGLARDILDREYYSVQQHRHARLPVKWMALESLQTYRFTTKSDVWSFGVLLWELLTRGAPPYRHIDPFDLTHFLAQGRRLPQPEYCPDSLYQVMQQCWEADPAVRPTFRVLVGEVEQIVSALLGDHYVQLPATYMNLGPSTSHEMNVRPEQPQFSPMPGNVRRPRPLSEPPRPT

Recombinant extracellular domain of human RON (rhRON), sequence (Q04912 25-957): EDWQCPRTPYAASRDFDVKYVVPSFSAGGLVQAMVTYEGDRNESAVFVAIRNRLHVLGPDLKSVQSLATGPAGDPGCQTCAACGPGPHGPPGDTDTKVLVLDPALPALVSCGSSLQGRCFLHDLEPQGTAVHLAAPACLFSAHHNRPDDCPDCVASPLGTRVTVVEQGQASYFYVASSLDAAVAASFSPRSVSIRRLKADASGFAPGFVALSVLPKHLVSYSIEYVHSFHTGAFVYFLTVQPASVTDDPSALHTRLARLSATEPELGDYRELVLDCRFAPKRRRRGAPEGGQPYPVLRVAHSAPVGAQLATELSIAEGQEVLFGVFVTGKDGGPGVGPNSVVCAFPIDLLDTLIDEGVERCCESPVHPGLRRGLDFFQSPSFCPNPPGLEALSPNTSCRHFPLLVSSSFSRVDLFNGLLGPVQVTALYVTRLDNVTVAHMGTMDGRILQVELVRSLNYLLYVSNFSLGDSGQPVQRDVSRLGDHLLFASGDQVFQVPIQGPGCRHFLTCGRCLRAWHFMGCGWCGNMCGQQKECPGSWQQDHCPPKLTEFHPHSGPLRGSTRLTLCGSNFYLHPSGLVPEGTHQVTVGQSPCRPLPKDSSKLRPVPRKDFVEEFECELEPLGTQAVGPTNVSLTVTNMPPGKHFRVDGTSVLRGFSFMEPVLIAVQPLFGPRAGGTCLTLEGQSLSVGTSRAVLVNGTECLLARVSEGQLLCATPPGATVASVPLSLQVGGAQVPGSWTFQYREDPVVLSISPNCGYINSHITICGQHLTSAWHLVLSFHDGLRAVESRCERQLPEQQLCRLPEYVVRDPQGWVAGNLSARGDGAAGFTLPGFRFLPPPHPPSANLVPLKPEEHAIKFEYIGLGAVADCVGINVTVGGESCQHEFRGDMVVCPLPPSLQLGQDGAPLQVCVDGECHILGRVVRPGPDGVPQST

| Binder | binding result [1] | binding result [2] |
| --- | --- | --- |
| 11B09 (VHH) VHH: EVQLVESGGGLVQAGGSLRLSCAASGRTFSNYAMGWFRQAPGKERDFVAAIDWSGDSISYENTVKGRFTISRDNAKNTMYLQMNSLKPEDTAVYFCATRSVGGISTLRRRYDYWGQGTLVTVSS | binds | binds |
| 8C03 (VHH) VHH: EVQLVESGGGFVQAGGSLRLSCAASVRIAMGWFRQAPGKEREFVARISASGGSTEYADSVKGRFTISRDSSKSTAYLQMNSLKPEDTAVYYCAARLWNQREYPYWGQGTQVTVSS | binds | binds |
| 11D08 (VHH) VHH: EVQLVESGGGLVQPGGSLRLSCAASGFTFSSYWMYWVRQAPGKGLEWVSAISPASGSVDYIDSVKGRFTISRDNAQNTLYLRMNSLKSEDTAIYYCAKDSRRLIRSNYETFGLGTQVTVSS | binds | binds |
| 8G04 (VHH) VHH: EVQLVESGGGLVQAGGSLRLSCAASGRTFSVYPMGWFRQAPGKEREFVATISRRGAISYYQDSVKGRFTISRDSANDTVYLQMNSLRPEDTAVYYCAQYKASSSSYTRGRPDEIVYWGQGTQVTVSS | binds | binds |
| 2C11 (VHH) VHH: EVQLVESGGGLVQPGGSLRLSCAASGFTFNYYWMYWVRQRPGKGLEWVSAINTGGGTTDYADSVKGRFTISRDNAKSTLYLQMDSLKSEDTAVYYCAKDRRRLIRSEYDYLGQGTQVTVSS | binds | binds |
| 2A01 (VHH) VHH: EVQLVESGGGLVQAGGSLRLSCAASSRTFSTYPMAWFRQAPGKEREFVATISRGGITSYYADSVKGRFTISRDNAKNTVYLQMNSLKPEDTAVYYCAQYKASATAYTRGRPDEIVHWGQGTQVTVSS | binds | binds |
| KY704063 (VHH) VHH: EVQLVESGGGLVQPGGSLTLSCVAYGITVPDYPIGWFRQSPGKEREGVSCIRRSGGRIVYSDSAKGRFNTSRDNAENTVYLQMNSLAPEDTAVYYCATKCMVEFGDTTYSDYAGLNYWGKGTLVTVSS | binds |  |
| 2F08 (VHH) VHH: EVQLVESGGGLVQAGGSLRLSCAASGRYPMGWFCQAPGGEREFVAAISRSGASTYYADSVKGRFTIARDSAKNTVYLEMNSLKPEDTAVYYCAAKENYYGDYGLAQNYDYWGQGTQVTVSS | binds | binds |
| 2A02 (VHH) VHH: EVQLVESGGGTVKAGGSLRLSCAAPRRYHMGWFRQAPGKEREFVTAISSSGGSTSYADSVKGRFTISRDSAKSTVYLQMNSLKPEDTAVYFCAARSGLWMATSTQGHYDYWGQGTQVTVSS | binds | binds |
| KY704065 (VHH) VHH: EVQLVESGGGLVQAGGSLRLSCAVSNTVFRLRTMDWYRQAPEKRREWVATITSDGSTDYVGAVKGRFTISRDNAKSTMYLQMNNVKPEDTAVYYCYTANFWGQGTLVTVSS | binds |  |
| KY704051 (VHH) VHH: EVQLVESGGGLVQPGGSLRLSCAASGFAFSYYYMYWVRQAPGKGLEWVSRISPGGGTTYYADSVKGRFTISRDNAKNTLYLQMNSLNSEDTAVYYCAKDNRRLIDSGAYDYRGQGTLVTVSS |  | binds |
| 8E08 (VHH) VHH: EVQLVESGGGLVQPGGSLRLSCAASGFTLDNHAIGWFRRAPGKERERIGCISSSSGTTAYADSVEGRFTISRDNAKNTVYLQMNSLKPEDTAVYYCAARFQGGFLGCTFAPQTFGYWGQGTQVTVSS | binds | binds |
| 2B10 (VHH) VHH: EVQLVESGGGLVQAGGSLRLSCATSGISFRLSNMGWYRQAPGKSREFVAEITSGGNWNYADSVKGRFTISRDNAKSTVYLQMNSLKPEDTGVYYCNRLGTPLWGQGTQVTVSS | binds | binds |
| 2C01 (VHH) VHH: EVQLVESGGGLVQAGGSLRLSCAPSERTFRSDVMGWFRQAPGRGREFVAAIAENGDILTRFEGSAKGRFTISRDNANDTVYLQMSSLKPEDTAIYYCAARWGTITTVSHQYHFWGQGTQVTVSS | binds | binds |
| 2F12 (VHH) VHH: EVQLVESGGGLVQAGGSLRLSCAASGSSTYEMGWFRQAPGKEREFVAGINWNGGRTYYADSVKGRFTISRDNAKMTVYLQMNSLKPEDTAAYYCSAAYGLRDAFRMYRSEYPYWGQGTQVTVSS | binds | binds |
| 5B04 (VHH) VHH: EVQLVKSGGGLVQVGGSLRLSCAASGRTFSSYAMGWFRQAPGKERELVAAINWNGGRTYYADFVKGRFTISRDNAKNTVYLQMNSLKPEDTAVYYCAAGHLTSTGVLHPADYYNWDEYDYWGQGTQVTVSS | binds | binds |
| 5F06 (VHH) VHH: EVQLVESGGGLVQAGGSLGLSCAASGRVAMGWFRRPPGQERDFVAAISASGATTYYADSVKGRFTISRDSAKTTVYLQMNSLKPEDTAVYYCAARLSWSSDYRSGGSYEHWGQGTQVTVSS | binds | binds |
| 11A09 (VHH) VHH: EVQLVESGGGLVQPGGSLRLSCAASGFTFSSYWMYWVRQAPGKGLEWVSAVNTGGGTTDYADSVKGRFTISRDNAKDTLYLQMNSLKYEDTAVYYCARDQRRYIRTTYDYHGQGTLVTVSS | binds | binds |
| 8B01 (VHH) VHH: EVQLVESRGGTVQAGGSLRLSCAASGRTFSNYAAGWFRQAPGKEREFVAGISAKGGVTYYVDFVKGRFTISRDNAKNTVYLQMNSLKPEDTAVYYCAADGSYGTILATIAENSRISLLKDWGQGTLVTVSS | binds | binds |
| 8D02 (VHH) VHH: EVQLVESGGGLVQTGGSLRLSCAASGLTFSDYAMGWFRQAAGKEREFVGVISWGGRHTYYGDFAKGRFTISRENSKNTVYLQMNSLKPEDTAVYTCARKRGMADIAYTHATSYDYWGQGTQVTVSS | binds | binds |
| 2D04 (VHH) VHH: EVQLVESGGGLVQAGGSLRLSCAASGRIFSVYRVGWFRQAPGKEREIVASINNRNGASTFYADSVKGRFTISRDSAKNTVYLQMRSLRPEDTAVYYCAARDQGTTEYHYWGQGTLVTVSS | binds | binds |
| 5B10 (VHH) VHH: EVQLVESGGGLVQAGGSLRLSCATSGRYVMGWFRQAPGQEREFVTSISRSGGSTTYADSVKGRFTISRDSAENTVYLQMNSLKPEDTAVYYCAAWSYYGVAYTSTTSPDYWGQGTLVTVSS | binds | binds |
